Experiments:
Format in all cases: biochemical
Conditions in all cases: other: substrate on purified human 20S proteasome; pH 8.0; 37.0 °C
[1] = substrate: Cc1cc(=O)oc2cc(NC(=O)[C@H](CCC(=O)O)NC(=O)[C@H](CC(C)C)NC(=O)[C@H](CC(C)C)NC(=O)OCc3ccccc3)ccc12; experiment: Proteasome activity measurement, caspase-like
Description: (§1) Suc-Leu-Leu-Val-Tyr-AMC, Bz-Val-Gly-Arg-AMC and Z-Leu-Leu-Glu-AMC (Bachem, Bubendorf, Switzerland) were used for the chymotrypsin-like, trypsin-like and caspase-like activites, respectively. Assay buffer consisted of TE buffer (20 mM Tris (pH = 8.0), 0.5 mM EDTA, 0.03% SDS). Substrate hydrolysis was continuously monitored at 37°C with an automated microplate reader (Tecan Safire^2). Measured fluorescence values (RFU) were plotted versus time with nonlinear regression to fit a Michaelis-Menten plot.
(§2) For the Ki determination, 25 µL of substrate at three concentrations and 25 µL of inhibitor of interest also at three different concentrations were added to the wells of a white microplate. The reaction was initiated with 50 µL of the enzyme in the assay buffer. Flourescence of the AMC release was continuously monitored at 420 nm with 320 nm excitation.
(§3) Km and Ki were calculated using SigmaPlot 11 (Enzyme Kinetics Module 1.3) and are presented as the mean of three independent experiments.

[2] = substrate: Cc1cc(=O)oc2cc(NC(=O)[C@H](CCCNC(=N)N)NC(=O)CNC(=O)[C@@H](NC(=O)c3ccccc3)C(C)C)ccc12; experiment: Proteasome activity measurement, trypsin-like
Description: as §1, §2, §3

[3] = substrate: Cc1cc(=O)oc2cc(NC(=O)[C@H](Cc3ccc(O)cc3)NC(=O)[C@@H](NC(=O)[C@H](CC(C)C)NC(=O)[C@H](CC(C)C)NC(=O)CCC(=O)O)C(C)C)ccc12; experiment: Proteasome activity measurement, chymotrypsin-like
Description: as §1, §2, §3

B1: caspase-like activity of human 20S proteasome (Homo sapiens) (protein)
chain: TTIMAVQFDGGVVLGADSRTTTGSYIANRVTDKLTPIHDRIFCCRSGSAADTQAVADAVTYQLGFHSIELNEPPLVHTAASLFKEMCYRYREDLMAGIIIAGWDPQEGGQVYSVPMGGMMVRQSFAIGGSGSSYIYGYVDATYREGMTKEECLQFTANALALAMERDGSSGGVIRLAAIAESGVERQVLLGDQIPKFAVATLPPA
notes: purchased Boston Biochem, Inc
Work on B1 yielded a Km [1] of 37 ± 9 µM.

B2: trypsin-like activity of human 20S proteasome (Homo sapiens) (protein)
chain: TTIAGVVYKDGIVLGADTRATEGMVVADKNCSKIHFISPNIYCCGAGTAADTDMTTQLISSNLELHSLSTGRLPRVVTANRMLKQMLFRYQGYIGAALVLGGVDVTGPHLYSIYPHGSTDKLPYVTMGSGSLAAMAVFEDKFRPDMEEEEAKNLVSEAIAAGIFNDLGSGSNIDLCVISKNKLDFLRPYTVPNKKGTRLGRYRCEKGTTAVLTEKITPLEIEVLEETVQTMDTS
notes: purchased Boston Biochem, Inc
B2 was tested, and the Km [2] was 44 ± 5 µM.

B3: chymotrypsin-like activity of human 20S proteasome (Homo sapiens) (protein)
chain: TTTLAFKFRHGVIVAADSRATAGAYIASQTVKKVIEINPYLLGTMAGGAADCSFWERLLARQCRIYELRNKERISVAAASKLLANMVYQYKGMGLSMGTMICGWDKRGPGLYYVDSEGNRISGATFSVGSGSVYAYGVMDRGYSYDLEVEQAYDLARRAIYQATYRDAYSGGAVNLYHVREDGWIRVSSDNVADLHEKYSGSTP
notes: purchased Boston Biochem, Inc
B3 gave a Km [3] of 100 ± 12 µM.

Reference: publication PMC3408433, “Selective Cytotoxicity of Amidinopiperidine Based Compounds Towards Burkitt’s Lymphoma Cells Involves Proteasome Inhibition” (PLoS ONE, 2012)
